Experimental data from patent US6867027B1, “RNA polymerase” (The Institute of Physical and Chemical Research, priority 1997, dated 2005).
Entries after “also recorded” stand apart in the source; their conditions may differ.

Columns and labels:
[1] = Inhibition of [α-32P]UTP incorporation by 3′-dATP in the transcription reaction (3′-dNTP incorporation rate); assay type: biochemical; settings: compared with wild type T7 RNA polymerase
Procedure: Ribonucleotide (NTP) and 3′-deoxynucleotide (3′-dNTP) incorporation rates of the mutant T7 RNA polymerase purified in Example 7 were measured as follows.
pBluescript(KS+) plasmid (Stratagene) linearized by reaction with a restriction endonuclease, PvuII, was used as a template for the transcription reaction, and 250 μM each of ATP, CTP, GTP, and UTP, 2 mM of spermidine-(HCl)3, 5 mM of DTT, 40 mM Tris/HCl pH 8.0, 0.1 μl of [α-^32P] UTP (3000 Ci/mmole), and 25 units of the mutant T7 RNA polymerase F644Y/L665P/F667Y were also used for the reaction. For two kinds of reaction mixture (with or without 3′-dATP, final concentration was 100 μM), the reaction was performed at 37° C. for 60 minutes. The whole reaction mixture was spotted on DE81 paper (Whatman), washed three times with phosphate buffer, and dried. The DE81 paper was placed into a scintillation vial, and radioactivity was measured using a scintillation counter (Beckman) for each reaction. Degree of inhibition of the [α-^32P] UTP incorporation was calculated by comparing the values obtained with and without 3′-dATP based on the measured radioactivity. The relative activity obtained from calculated inhibition degree and defined as a relative value to the inhibition degree of the wild type T7 RNA polymerase normalized to 1.000 was shown in Table 1.
The inhibition degree was calculated by using the wild type T7 RNA polymerase, T7 RNA polymerase F644Y, L665P/F667Y obtained in Example 3, mutant T7 RNA polymerase F644Y/L665P, F782Y, F733Y, F646Y or Y639F constructed and purified in the same manner as in Examples 2 and 3 for the reaction instead of the above F644Y/L665P/F667Y mutant, and relative activities are shown in Table 1.
For example, it is meant that the mutant T7 RNA polymerase F644Y/L665P/F667Y is 5.58 times more likely to incorporate 31-dATP in comparison with the wild type enzyme.

[2] = system: human thyroid-stimulating hormone (hTSH-β) cDNA PCR product; test: Transcriptional sequencing reaction on PCR product of hTSH-β cDNA (Example 9); assay type: biochemical; settings: four dye terminators, PCR product template, FIG. 18
Procedure: As the template for PCR, human thyroid-stimulating hormone (hTSH-β) cDNA subcloned into a plasmid derived from BS750 having T7 promoter was used. By using this plasmid […] having hTSH-β with L220 primer (5′-TAACAATTTCACACAGGAAACA-3′ (SEQ ID NO:38)) and 1211 primer (5′-ACGTTGTAAAACGACGGCCAGT-3′ (SEQ ID NO:39)) existing at both sides of the cloning site, PCR reaction was performed in a reaction volume of 20 μl (1 cycle of 94° C. for 2 minutes, 30 cycles of 94° C. for 1 minute, 55° C. for 1 minute, and 72° C. for 1.5 minutes, followed by 72° C. for 5 minutes). The T7 promoter existed in the downstream of 1211 primer of the PCR product obtained from the above PCR reaction.
The transcriptional sequencing reaction was performed by the method of Melton, D. A, [Nucleic Acids Res., 12: 7035-7056 (1984)].
1 μl (about 10 ng) of the above PCR product was used for the sequencing reaction. […]
The dried reaction product was dissolved in 6 μl of formamide/EDTA/Blue dextran loading buffer according to the instruction manual Ver. 1.0 of ABI PRISM 377 DNA Sequencing System available from Perkin-Elmer Japan, and 2 μl of the solution was analyzed by ABI 377 DNA Sequencer and an analysis program (Sequencing Analysis Ver. 3.0) using denatured gel for sequencing analysis which contained 6M urea/4% Long Ranger™ acrylamide solution (FMC) to afford an electropherogram.

B1: F644Y/L665P/F667Y: mutant T7 RNA polymerase introduced with F644Y/L665P/F667Y mutations (protein)
chain: MNTINIAKNDFSDIELAAIPFNTLADHYGERLAREQLALEHESYEMGEARFRKMFERQLKAGEVADNAAAKPLITTLLPKMIARINDWFEEVKAKRGKRPTAFQFLQEIKPEAVAYITIKTTLACLTSADNTTVQAVASAIGRAIEDEARFGRIRDLEAKHFKKNVEEQLNKRVGHVYKKAFMQVVEADMLSKGLLGGEAWSSWHKEDSIHVGVRCIEMLIESTGMVSLHRQNAGVVGQDSETIELAPEYAEAIATRAGALAGISPMFQPCVVPPKPWTGITGGGYWANGRRPLALVRTHSKKALMRYEDVYMPEVYKAINIAQNTAWKINKKVLAVANVITKWKHCPVEDIPAIEREELPMKPEDIDMNPEALTAWKRAAAAVYRKDKARKSRRISLEFMLEQANKFANHKAIWFPYNMDWRGRVYAVSMFNPQGNDMTKGLLTLAKGKPIGKEGYYWLKIHGANCAGVDKVPFPERIKFIEENHENIMACAKSPLENTWWAEQDSPFCFLAFCFEYAGVQHHGLSYNCSLPLAFDGSCSGIQHFSAMLRDEVGGRAVNLLPSETVQDIYGIVAKKVNEILQADAINGTDNEVVTVTDENTGEISEKVKLGTKALAGQWLAYGVTRSVTKRSVMTLAYGSKEYGFRQQVLEDTIQPAIDSGKGPMYTQPNQAAGYMAKLIWESVSVTVVAAVEAMNWLKSAAKLLAAEVKDKKTGEILRKRCAVHWVTPDGFPVWQEYKKPIQTRLNLMFLGQFRLQPTINTNKDSEIDAHKQESGIAPNFVHSQDGSHLRKTVVWAHEKYGIESFALIHDSFGTIPADAANLFKAVRETMVDTYESCDVLADFYDQFADQLHESQLDKMPALPAKGNLNLRDILESDFAFA
In the case of B1, the “ability for incorporating 3′-dATP, 3′-dGTP, 3′-dCTP, 3′-dUTP and derivatives thereof” value [1] is reported as “the least bias for the 3′-dATP incorporation among the mutant enzymes prepared; also recorded: markedly improved” and the sequencing analysis [2] is reported as “Excellent sequencing analysis was possible”.
